Assay results published in patent US10562947B2, “Compositions and methods for preventing or treating diseases, conditions or processes characterized by aberrant fibroblast proliferation and extracellular matrix deposition” (MOERAE MATRIX, INC., priority 2011, dated 2020).
Where a SMILES comes first, the peptide text is derived from it.

Key:
Assay in all cases: Kinase Profiling Assay
Format in all cases: biochemical
[1] = molecular target: MAPKAP-K3(h) (Homo sapiens, UniProt Q16644); settings: for MAPKAP-K3(h) % activity: 100 μM peptide
How it was run: (§1)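 Selectivity profiling: MK2-targeting peptides tested on 266 human kinases. All activity determinations done in duplicate.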

[2] = molecular target: cKit(D816V)(h) (Homo sapiens, UniProt P10721, D816V); settings: 100 μM peptide
How it was run: as §1

[3] = molecular target: T1, PKG1α(h) (Homo sapiens, UniProt Q13976); settings: 100 μM peptide
T1 construct: purchased Millipore (IC50 Profiler Express service)
T1 sequence (Q13976 1-671): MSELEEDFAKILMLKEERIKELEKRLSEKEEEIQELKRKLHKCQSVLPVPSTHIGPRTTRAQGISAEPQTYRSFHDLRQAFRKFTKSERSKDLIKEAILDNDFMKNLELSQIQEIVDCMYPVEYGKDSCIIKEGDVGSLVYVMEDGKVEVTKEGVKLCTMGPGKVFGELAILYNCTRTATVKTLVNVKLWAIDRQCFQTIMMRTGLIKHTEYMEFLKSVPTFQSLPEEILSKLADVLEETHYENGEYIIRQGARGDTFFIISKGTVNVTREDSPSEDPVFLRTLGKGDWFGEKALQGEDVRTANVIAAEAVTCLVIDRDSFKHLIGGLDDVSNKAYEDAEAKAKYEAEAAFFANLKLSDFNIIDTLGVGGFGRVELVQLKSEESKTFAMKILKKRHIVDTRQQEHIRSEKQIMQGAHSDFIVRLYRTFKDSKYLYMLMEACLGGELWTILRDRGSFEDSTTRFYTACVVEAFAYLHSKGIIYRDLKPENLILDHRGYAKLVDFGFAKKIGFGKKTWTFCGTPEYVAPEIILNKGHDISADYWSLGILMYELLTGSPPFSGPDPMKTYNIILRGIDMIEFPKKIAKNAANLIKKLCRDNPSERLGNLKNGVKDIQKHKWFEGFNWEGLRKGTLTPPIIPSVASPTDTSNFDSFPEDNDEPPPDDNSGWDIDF
How it was run: as §1

[4] = molecular target: PKCη(h) (Homo sapiens, UniProt P24723); settings: 100 μM peptide
How it was run: as §1

[5] = molecular target: Pim-1(h) (Homo sapiens, UniProt P11309); settings: 100 μM peptide
How it was run: as §1

[6] = molecular target: EphA5(h) (Homo sapiens, UniProt P54756); settings: 100 μM peptide
How it was run: as §1

[7] = molecular target: T2, DYRK2(h) (Homo sapiens, UniProt Q92630); settings: 100 μM peptide
T2 sequence (Q92630 1-601): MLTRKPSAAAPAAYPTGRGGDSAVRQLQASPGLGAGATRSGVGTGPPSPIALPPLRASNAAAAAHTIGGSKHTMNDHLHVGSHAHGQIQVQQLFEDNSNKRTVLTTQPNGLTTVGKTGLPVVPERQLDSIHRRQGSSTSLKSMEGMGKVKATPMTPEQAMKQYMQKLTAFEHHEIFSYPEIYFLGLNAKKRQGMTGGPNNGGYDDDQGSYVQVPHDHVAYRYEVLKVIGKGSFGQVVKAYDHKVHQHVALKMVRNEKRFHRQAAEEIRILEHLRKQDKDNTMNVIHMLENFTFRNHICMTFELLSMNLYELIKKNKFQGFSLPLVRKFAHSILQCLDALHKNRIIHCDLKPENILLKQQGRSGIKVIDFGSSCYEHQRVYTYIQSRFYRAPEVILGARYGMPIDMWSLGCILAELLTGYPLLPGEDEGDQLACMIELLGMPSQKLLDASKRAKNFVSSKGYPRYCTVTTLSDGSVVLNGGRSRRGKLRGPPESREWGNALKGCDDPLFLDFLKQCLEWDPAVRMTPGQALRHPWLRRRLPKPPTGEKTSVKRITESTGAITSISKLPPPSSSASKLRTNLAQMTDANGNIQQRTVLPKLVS
How it was run: as §1

[8] = molecular target: SRPK2(h) (Homo sapiens, UniProt P78362); settings: 100 μM peptide
How it was run: as §1

[9] = molecular target: T3, Rsk2(h) (Homo sapiens, UniProt P51812); settings: 100 μM peptide
T3 construct: purchased Millipore (IC50 Profiler Express service)
How it was run: as §1

[10] = molecular target: WNK2(h) (Homo sapiens, UniProt Q9Y3S1); settings: 100 μM peptide
How it was run: as §1

[11] = molecular target: MSK1(h) (Homo sapiens, UniProt O75582); settings: 100 μM peptide
How it was run: as §1

[12] = molecular target: CDK5/p25(h) (Homo sapiens, UniProt Q00535); settings: 100 μM peptide
How it was run: as §1

[13] = molecular target: T4, PRK2(h) (Homo sapiens, UniProt Q16513); settings: 100 μM peptide
T4 construct: purchased Millipore (IC50 Profiler Express service)
How it was run: as §1

[14] = molecular target: T5, BrSK2(h) (Homo sapiens, UniProt Q8IWQ3); settings: 100 μM peptide
T5 sequence (Q8IWQ3 1-736): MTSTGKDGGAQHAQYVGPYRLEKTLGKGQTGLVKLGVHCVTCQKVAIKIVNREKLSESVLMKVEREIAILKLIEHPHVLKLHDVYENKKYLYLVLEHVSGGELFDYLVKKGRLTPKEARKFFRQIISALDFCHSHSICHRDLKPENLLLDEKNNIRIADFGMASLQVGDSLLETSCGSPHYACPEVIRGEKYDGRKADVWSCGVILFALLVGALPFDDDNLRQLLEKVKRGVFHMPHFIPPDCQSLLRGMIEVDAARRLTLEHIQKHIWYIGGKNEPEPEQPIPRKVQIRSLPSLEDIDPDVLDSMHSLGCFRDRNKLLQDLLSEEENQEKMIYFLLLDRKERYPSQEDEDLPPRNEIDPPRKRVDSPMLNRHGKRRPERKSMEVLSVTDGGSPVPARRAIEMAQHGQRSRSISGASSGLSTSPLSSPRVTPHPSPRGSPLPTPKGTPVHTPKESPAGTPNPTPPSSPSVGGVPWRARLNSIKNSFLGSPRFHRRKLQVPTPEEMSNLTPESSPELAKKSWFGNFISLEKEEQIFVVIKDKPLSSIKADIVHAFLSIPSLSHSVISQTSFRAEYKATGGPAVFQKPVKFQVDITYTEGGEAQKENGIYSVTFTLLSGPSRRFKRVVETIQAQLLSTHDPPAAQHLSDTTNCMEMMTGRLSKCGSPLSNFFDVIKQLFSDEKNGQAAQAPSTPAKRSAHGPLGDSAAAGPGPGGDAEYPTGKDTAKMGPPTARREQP
How it was run: as §1

Chain of SRPK2(h) (P78362 whole entry): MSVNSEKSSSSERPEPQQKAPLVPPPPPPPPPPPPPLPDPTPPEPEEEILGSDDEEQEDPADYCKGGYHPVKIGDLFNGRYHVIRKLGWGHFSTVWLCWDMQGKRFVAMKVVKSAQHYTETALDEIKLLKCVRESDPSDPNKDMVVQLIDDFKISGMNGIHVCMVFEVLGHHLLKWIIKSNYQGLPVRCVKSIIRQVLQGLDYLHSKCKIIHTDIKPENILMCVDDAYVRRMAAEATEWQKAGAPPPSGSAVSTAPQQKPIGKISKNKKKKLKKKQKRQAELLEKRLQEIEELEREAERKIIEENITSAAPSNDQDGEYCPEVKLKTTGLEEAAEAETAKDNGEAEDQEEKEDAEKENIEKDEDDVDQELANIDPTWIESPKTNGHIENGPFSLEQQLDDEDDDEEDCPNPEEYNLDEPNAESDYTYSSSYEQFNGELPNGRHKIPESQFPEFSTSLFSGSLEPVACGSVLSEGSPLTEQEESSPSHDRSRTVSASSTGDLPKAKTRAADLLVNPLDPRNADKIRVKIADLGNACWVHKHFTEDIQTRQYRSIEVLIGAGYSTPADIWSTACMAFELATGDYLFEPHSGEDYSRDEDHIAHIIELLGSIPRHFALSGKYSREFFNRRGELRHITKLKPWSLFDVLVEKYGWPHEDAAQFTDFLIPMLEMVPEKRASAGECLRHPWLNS
Chain of EphA5(h) (P54756 25-1037): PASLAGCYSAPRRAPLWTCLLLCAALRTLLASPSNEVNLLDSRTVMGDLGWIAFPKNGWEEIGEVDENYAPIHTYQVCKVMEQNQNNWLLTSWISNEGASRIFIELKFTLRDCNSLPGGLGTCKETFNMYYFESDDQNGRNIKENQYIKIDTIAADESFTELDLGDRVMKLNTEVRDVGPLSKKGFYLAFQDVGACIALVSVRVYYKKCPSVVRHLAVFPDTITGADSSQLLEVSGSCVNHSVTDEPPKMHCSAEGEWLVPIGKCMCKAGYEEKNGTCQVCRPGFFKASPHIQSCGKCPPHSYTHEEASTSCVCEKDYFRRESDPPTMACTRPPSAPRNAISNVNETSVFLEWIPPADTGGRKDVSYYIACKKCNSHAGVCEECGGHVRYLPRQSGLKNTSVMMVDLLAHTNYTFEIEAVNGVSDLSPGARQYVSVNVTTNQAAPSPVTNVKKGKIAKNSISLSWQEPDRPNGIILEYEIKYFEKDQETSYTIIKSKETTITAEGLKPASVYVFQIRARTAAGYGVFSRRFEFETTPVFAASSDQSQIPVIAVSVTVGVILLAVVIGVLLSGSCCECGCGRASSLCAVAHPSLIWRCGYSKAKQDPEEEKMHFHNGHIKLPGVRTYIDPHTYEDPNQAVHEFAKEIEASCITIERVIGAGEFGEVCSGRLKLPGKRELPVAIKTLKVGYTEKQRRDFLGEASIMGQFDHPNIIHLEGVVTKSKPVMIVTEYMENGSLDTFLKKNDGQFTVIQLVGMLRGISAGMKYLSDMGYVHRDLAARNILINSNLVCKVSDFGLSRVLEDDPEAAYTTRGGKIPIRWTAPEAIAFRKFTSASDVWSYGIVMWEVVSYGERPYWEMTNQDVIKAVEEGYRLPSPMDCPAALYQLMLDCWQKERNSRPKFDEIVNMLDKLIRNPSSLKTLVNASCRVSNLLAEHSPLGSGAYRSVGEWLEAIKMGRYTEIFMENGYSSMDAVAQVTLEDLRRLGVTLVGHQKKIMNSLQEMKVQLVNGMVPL
Chain of PKCη(h) (P24723 whole entry): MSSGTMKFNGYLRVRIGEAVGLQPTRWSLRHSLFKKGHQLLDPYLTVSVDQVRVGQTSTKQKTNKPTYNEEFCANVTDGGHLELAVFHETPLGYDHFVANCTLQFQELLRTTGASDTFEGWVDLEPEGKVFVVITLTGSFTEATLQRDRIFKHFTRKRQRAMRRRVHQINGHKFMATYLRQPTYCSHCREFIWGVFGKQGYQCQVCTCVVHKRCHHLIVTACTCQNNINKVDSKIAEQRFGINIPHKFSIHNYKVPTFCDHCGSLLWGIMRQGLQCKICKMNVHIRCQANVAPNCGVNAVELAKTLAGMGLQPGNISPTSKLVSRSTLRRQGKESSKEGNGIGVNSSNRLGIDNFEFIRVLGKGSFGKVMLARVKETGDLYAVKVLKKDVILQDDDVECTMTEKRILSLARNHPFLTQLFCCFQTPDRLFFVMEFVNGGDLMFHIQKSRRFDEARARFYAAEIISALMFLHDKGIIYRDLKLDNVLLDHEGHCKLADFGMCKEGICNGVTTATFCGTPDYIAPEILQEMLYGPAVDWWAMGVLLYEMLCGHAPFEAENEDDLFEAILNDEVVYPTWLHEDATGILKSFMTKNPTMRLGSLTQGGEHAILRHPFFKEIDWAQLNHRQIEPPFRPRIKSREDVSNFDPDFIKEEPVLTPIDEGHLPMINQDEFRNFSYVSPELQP
Chain of WNK2(h) (Q9Y3S1 whole entry): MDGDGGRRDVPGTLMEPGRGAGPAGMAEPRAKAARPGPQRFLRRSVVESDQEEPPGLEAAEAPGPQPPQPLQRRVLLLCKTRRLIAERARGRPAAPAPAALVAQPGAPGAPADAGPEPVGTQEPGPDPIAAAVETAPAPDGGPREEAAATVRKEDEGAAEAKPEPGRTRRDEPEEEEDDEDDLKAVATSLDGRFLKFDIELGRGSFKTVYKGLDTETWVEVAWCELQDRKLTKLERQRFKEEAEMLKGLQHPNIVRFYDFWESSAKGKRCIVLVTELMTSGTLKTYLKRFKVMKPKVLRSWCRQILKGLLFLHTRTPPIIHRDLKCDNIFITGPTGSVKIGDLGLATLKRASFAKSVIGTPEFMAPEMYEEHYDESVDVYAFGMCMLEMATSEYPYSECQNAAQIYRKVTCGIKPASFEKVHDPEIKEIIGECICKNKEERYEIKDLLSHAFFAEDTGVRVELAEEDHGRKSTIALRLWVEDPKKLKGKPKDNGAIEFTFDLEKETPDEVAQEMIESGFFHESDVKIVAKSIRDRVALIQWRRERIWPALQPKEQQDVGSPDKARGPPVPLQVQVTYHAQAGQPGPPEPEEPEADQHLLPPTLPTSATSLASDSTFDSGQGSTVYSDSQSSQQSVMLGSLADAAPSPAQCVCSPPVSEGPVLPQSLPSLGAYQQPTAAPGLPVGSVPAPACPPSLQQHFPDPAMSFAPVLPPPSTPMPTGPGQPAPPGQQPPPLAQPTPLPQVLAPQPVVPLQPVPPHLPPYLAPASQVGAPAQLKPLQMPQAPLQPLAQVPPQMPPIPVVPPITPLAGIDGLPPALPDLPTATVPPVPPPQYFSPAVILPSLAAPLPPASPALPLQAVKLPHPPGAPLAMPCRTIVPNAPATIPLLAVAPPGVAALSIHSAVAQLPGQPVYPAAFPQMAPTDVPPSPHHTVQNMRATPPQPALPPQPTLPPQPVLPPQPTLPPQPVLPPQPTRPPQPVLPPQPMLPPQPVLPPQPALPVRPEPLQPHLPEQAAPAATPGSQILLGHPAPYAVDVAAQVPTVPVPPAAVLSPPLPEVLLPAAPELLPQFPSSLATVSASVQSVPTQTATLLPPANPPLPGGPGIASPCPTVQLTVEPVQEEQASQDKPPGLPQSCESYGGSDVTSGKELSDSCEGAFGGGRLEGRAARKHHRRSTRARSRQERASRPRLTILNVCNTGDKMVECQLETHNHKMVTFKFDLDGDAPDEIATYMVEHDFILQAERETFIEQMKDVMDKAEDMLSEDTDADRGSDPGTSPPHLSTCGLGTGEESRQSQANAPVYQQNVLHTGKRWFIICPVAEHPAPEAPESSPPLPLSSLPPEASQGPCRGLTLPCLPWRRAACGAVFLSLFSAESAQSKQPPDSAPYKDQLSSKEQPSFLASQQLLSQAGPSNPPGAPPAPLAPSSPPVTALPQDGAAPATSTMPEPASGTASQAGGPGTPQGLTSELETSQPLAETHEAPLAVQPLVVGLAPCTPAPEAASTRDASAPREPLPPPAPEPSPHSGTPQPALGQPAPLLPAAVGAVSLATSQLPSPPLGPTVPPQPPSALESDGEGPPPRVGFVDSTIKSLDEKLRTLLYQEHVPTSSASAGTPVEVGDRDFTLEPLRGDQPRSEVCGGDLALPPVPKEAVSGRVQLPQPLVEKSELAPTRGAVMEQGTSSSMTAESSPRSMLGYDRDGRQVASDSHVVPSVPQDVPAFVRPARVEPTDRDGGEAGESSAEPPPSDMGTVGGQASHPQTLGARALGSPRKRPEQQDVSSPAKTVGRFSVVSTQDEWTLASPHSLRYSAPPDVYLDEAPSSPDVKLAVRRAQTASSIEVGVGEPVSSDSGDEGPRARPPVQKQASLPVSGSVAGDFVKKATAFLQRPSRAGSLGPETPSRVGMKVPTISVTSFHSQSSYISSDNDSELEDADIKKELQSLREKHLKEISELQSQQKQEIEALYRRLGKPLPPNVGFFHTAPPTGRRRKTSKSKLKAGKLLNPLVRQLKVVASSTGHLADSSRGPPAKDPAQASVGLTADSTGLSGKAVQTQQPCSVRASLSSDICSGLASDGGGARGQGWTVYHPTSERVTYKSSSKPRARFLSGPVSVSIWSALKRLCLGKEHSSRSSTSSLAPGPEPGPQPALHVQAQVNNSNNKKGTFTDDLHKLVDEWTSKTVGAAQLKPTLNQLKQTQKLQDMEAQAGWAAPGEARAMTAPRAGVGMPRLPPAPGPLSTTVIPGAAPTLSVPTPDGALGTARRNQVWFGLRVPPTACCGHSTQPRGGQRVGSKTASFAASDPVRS
Chain of MAPKAP-K3(h) (Q16644 whole entry): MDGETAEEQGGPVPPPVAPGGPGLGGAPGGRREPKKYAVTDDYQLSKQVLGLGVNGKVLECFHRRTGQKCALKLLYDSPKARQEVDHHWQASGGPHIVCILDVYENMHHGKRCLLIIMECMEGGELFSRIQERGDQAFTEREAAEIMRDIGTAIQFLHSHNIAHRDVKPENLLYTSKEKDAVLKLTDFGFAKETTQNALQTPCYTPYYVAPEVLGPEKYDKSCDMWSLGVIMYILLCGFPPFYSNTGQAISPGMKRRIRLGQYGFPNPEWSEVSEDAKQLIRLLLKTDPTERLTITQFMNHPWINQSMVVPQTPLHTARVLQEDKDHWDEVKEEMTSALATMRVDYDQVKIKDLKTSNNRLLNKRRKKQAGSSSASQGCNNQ

Compound	inhibition at 100 µM ([1]; read-out: inhibition of kinase activity of MK3) [%]	cKit(D816V)(h) % activity [2] [%]	PKG1α(h) % activity [3] [%]	PKCη(h) % activity [4] [%]	Pim-1(h) % activity [5] [%]	EphA5(h) % activity [6] [%]	DYRK2(h) % activity [7] [%]	SRPK2(h) % activity [8] [%]	Rsk2(h) % activity [9] [%]	WNK2(h) % activity [10] [%]	MSK1(h) % activity [11] [%]	MAPKAP-K3(h) % activity [1] [%]	CDK5/p25(h) % activity [12] [%]	PRK2(h) % activity [13] [%]	BrSK2(h) % activity [14] [%]
CC(C)C[C@H](NC(=O)[C@H](C)NC(=O)[C@H](CCCCN)NC(=O)[C@H](C)NC(=O)[C@H](CCCNC(=N)N)NC(=O)[C@H](C)NC(=O)[C@H](CCC(N)=O)NC(=O)[C@H](CCCNC(=N)N)NC(=O)[C@H](C)NC(=O)[C@H](C)NC(=O)[C@H](C)NC(=O)[C@H](CCCNC(=N)N)NC(=O)[C@H](C)NC(=O)[C@@H](N)Cc1ccc(O)cc1)C(=O)N[C@@H](C)C(=O)N[C@@H](CCCNC(=N)N)C(=O)N[C@@H](CCC(N)=O)C(=O)N[C@@H](CC(C)C)C(=O)NCC(=O)N[C@H](C(=O)N[C@@H](C)C(=O)N[C@@H](C)C(=O)O)C(C)C [MMI-0100] (H-YARAAARQARAKALARQLGVAA-OH; N-terminus and C-terminus assumed)	> 65	–	–	–	–	–	–	–	–	–	–	–	–	–	–
YARAAARQARAKALNRQLGVA (Mammalian) [MMI-0200]	–	118	70	101	18	123	142	100	101	94	50	39	97	74	–
HRRIKAWLKKIKALARQLGVAA (Mammalian) [MMI-0500]	–	30	25	45	0	42	127	80	14	8	8	9	66	7	84
KAFAKLAARLYRKALARQLGVAA [MMI-0400]	–	35	58	98	7	24	195	97	38	54	28	7	92	27	86
FAKLAARLYRKALARQLGVAA [MMI-0300]	–	60	64	–	8	18	155	–	51	64	32	3	89	33	83
